The source of these data is publication PMC4146490 (Nature communications, 2014).

Broadly, the stoichiometry N is the number of molecules, sites or subunits per partner or assembly.

First the molecules themselves.
B2: DAZ associated protein 1 (DAZAP1), full length, recombinant (natural protein, human, UniProt Q96EP5 1-407, looked up)
chain: MNNSGADEIGKLFVGGLDWSTTQETLRSYFSQYGEVVDCVIMKDKTTNQSRGFGFVKFKDPNCVGTVLASRPHTLDGRNIDPKPCTPRGMQPERTRPKEGWQKGPRSDNSKSNKIFVGGIPHNCGETELREYFKKFGVVTEVVMIYDAEKQRPRGFGFITFEDEQSVDQAVNMHFHDIMGKKVEVKRAEPRDSKSQAPGQPGASQWGSRVVPNAANGWAGQPPPTWQQGYGPQGMWVPAGQAIGGYGPPPAGRGAPPPPPPFTSYIVSTPPGGFPPPQGFPQGYGAPPQFSFGYGPPPPPPDQFAPPGVPPPPATPGAAPLAFPPPPSQAAPDMSKPPTAQPDFPYGQYAGYGQDLSGFGQGFSDPSQQPPSYGGPSVPGSGGPPAGGSGFGRGQNHNVQGFHPYRR
B3: hnRNP A0, full length, recombinant (natural protein, UniProt Q13151 1-305, looked up)
chain: MENSQLCKLFIGGLNVQTSESGLRGHFEAFGTLTDCVVVVNPQTKRSRCFGFVTYSNVEEADAAMAASPHAVDGNTVELKRAVSREDSARPGAHAKVKKLFVGGLKGDVAEGDLIEHFSQFGTVEKAEIIADKQSGKKRGFGFVYFQNHDAADKAAVVKFHPIQGHRVEVKKAVPKEDIYSGGGGGGSRSSRGGRGGRGRGGGRDQNGLSKGGGGGYNSYGGYGGGGGGGYNAYGGGGGGSSYGGSDYGNGFGGFGSYSQHQSSYGPMKSGGGGGGGGSSWGGRSNSGPYRGGYGGGGGYGGSSF

Assay [1] addresses B2. Nature of the assay: ITC. On the technique in general: Isothermal titration calorimetry measures the heat released or taken up as one component is titrated into another.
Assay [2] has as its target B3. Nature of the assay: ITC.

B1: hnRNP A2, full length, recombinant (natural protein, UniProt P22626-2 1-341, looked up)
chain: MEREKEQFRKLFIGGLSFETTEESLRNYYEQWGKLTDCVVMRDPASKRSRGFGFVTFSSMAEVDAAMAARPHSIDGRVVEPKRAVAREESGKPGAHVTVKKLFVGGIKEDTEEHHLRDYFEEYGKIDTIEIITDRQSGKKRGFGFVTFDDHDPVDKIVLQKYHTINGHNAEVRKALSRQEMQEVQSSRSGRGGNFGFGDSRGGGGNFGPGPGSNFRGGSDGYGSGRGFGDGYNGYGGGPGGGNFGGSPGYGGGRGGYGGGGPGYGNQGGGYGGGYDNYGGGNYGSGNYNDFGNYNQQPSNYGPMKSGNFGGSRNMGGPYGGGNYGPGGSGGSGGYGGRSRY
As to B1, the binding result in assay [1] is listed as “binds”.

With B2, the “stoichiometry N” value in assay [2] worked out at 1. As to B3, the binding result in assay [1] is listed as “binds”.
